Tests used:
[1] = molecular target: Rim1-C-terminal 6xHis (yeast); test: cross-linking; SDA (NHS-diazirine) 50 uM, 3 uM Rim1 tetramer, 25 mM HEPES, 100 mM NaCl, 10% glycerol, pH 7.5, NHS step 25 °C 30 min, then UV 365 nm; SDS-PAGE; bands analysed by nanoLC-LTQ-Orbitrap MS (XLPM)
[2] = molecular target: Rim1-C-terminal 6xHis (yeast); test: cross-linking; DSS 2.5 mM, 3 uM Rim1 tetramer, 25 mM HEPES, 100 mM NaCl, 10% glycerol, pH 7.5, room temperature 40 min; products resolved on 5-15% SDS-PAGE; bands digested and analysed by nanoLC-LTQ-Orbitrap MS (XLPM, StavroX)

- stoichiometry N [1]: 4
- stoichiometry N [2]: 4
Substance: Rim1-C-terminal 6xHis (natural protein)
